Test system: MS2 coat protein
Assay: apparent KD of MS2 coat protein; designed switch direction (-1 OFF switch, 1 ON switch): -1; higher = weaker reporter binding
Method in brief: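 Designed RNA switches were transcribed on Illumina chips by stalled E. coli RNA polymerase and titrated with SNAP-549-labelled MS2 coat protein from 0.7 or 1.5 nM, doubling to 3 µM. Step length ran from 0.8–1.5 h at the lowest concentration to 10–20 min at the highest. The apparent KD is the median over clusters for each design, from curve-fitted normalised cluster fluorescence.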

[1] = Eterna round: R95, input ligand: microRNA oligo, concentration not stated
[2] = input ligand: microRNA oligo, concentration not stated

GCAAGCUUGUCAAGAUCCCACAUGAGGAUCACCCAUGUGCAUCGUCUGAGCCCAUAGCUAGUCAUCUGCGGGUGCGU [Eternabot (Original) Solution 15] (Eterna round: R97, puzzle: Sensor, turn-off variant 1)
apparent KD of MS2 coat protein (input ligand: FMN 200 uM): 40.3 nM
apparent KD of MS2 coat protein (input ligand: none): 44.7 nM

GCCUCACUUGAGGAUCACCCAAGUCAGGAUAUUCACGGAACUAUGUAGCAGUUCGGCCGGAGAAGGGAUUCGGG [Areses] (Eterna round: R97, puzzle: Exclusion 1)
apparent KD of MS2 coat protein (input ligand: FMN 200 uM): 88.4 nM
apparent KD of MS2 coat protein (input ligand: none): 35 nM

CUUUUGUCAGGAUAUCGUGCAUACAACGAAAGUUCUAUGUGCGAGAAGGGACAUGAGGAUCACCCAUGUUACGG [Omei Ex4 A6] (Eterna round: R97, puzzle: Exclusion 4)
apparent KD of MS2 coat protein (input ligand: FMN 200 uM): 175 nM
apparent KD of MS2 coat protein (input ligand: none): 677 nM

GUCGUGAGACAGGAUAUCCAAUCUAAACACGAGGGAGAAGGGUCUACAUGAGGAUCACCCAUGUGGUCUCAAAA [Aonondiin] (puzzle: Exclusion 6)
apparent KD of MS2 coat protein [1]: 17.2 nM

UGCUACAUGAGGAUCACCCAUGUAAUGUGGGAUUCGUUAGGACAGGAUAUGAUUGUAUUGUUUUUUCAGAAGGGUCAUUACUUU [JR_ExcNG3_Sub011] (Eterna round: R96, puzzle: Exclusion NG 3)
apparent KD of MS2 coat protein (input ligand: FMN 200 uM): 74.4 nM
apparent KD of MS2 coat protein [2]: 34.6 nM
apparent KD of MS2 coat protein (input ligand: none): 52.9 nM

GGUGCGUAUGUGAGGAUAUGCUGGUCCUUGGAUCGGCAGAAGGUACAUGAGGAUCACCCAUGUGGUGUCGUUCC [salish99_Bmod_ex4_102] (puzzle: Brourd's mod of Exclusion 4)
apparent KD of MS2 coat protein [1]: 87 nM

CCCAGUUAGGAAGGAUAUUGUACAUGAGGAUCACCCAUGUAAUAAAUGAGGAUCUCGGAUGUAUACAAGAAGGUCCGGAUAGGC [Ostracism 10 - Jieux - Exclusion NG 2] (Eterna round: R96, puzzle: Exclusion NG 2)
apparent KD of MS2 coat protein [2]: 58.5 nM

GUAUGUUAUGAGGAUAUCGGUGAACAUACACAUCGAGAAGGCAUGACAUGAGGAUCACCCAUGUCAAGGAUGAC [Exclusion 6 - B - 18:d] (puzzle: Exclusion 6)
apparent KD of MS2 coat protein [1]: 24.9 nM

GAUCACUGAGGAUAUACACAGAUACAAAGUAUCUGACCGUGACAUGAGGAUCACCCAUGUAGAAGGCAGAGGUC [Omei Ex2 B1] (Eterna round: R97, puzzle: Exclusion 2)
apparent KD of MS2 coat protein (input ligand: FMN 200 uM): 384 nM
apparent KD of MS2 coat protein (input ligand: none): 47.2 nM

AAAUAGCAUGAGGAUAUUGAACUGUAUUCAGUACGAGAAGGCAUGACAUGAGGAUCACCCAUGUUUUGUUGGGA [EX6 #5] (Eterna round: R97, puzzle: Exclusion 6)
apparent KD of MS2 coat protein (input ligand: FMN 200 uM): 126 nM
apparent KD of MS2 coat protein (input ligand: none): 27 nM

ACAUGAGGAUCACCCAUGUAAACAUAAUGGCUGAUGUAGAGUCAGGAUAUGCGUGGCUAACAAUCGCAGAAGGGACAAGACUGG [Deportation 30 - Jieux - Exclusion NG 3] (Eterna round: R96, puzzle: Exclusion NG 3)
apparent KD of MS2 coat protein (input ligand: FMN 200 uM): 22.2 nM
apparent KD of MS2 coat protein [2]: 23.1 nM
apparent KD of MS2 coat protein (input ligand: none): 25 nM

UGAGAGAGUAUAGGAUAUUAGAGGAGAAUGGUGAUAGAGACAUGAGGAUCACCCAUGUGAGGAGAUAAGAAGGGUAAGAACUCA [AK ExNG2-V2-4] (Eterna round: R96, puzzle: Exclusion NG 2)
apparent KD of MS2 coat protein (input ligand: FMN 200 uM): 452 nM
apparent KD of MS2 coat protein [2]: 292 nM
apparent KD of MS2 coat protein (input ligand: none): 435 nM

GAUUAUGCGAGCUUUAGGGACAUGAGGAUCACCCAUGUUCGUCUUAUUGGUCUGGGUACACUAACAUACCUAAAUCU [JMF 22] (puzzle: Sensor v3, turn-off variant 1)
apparent KD of MS2 coat protein (Eterna round: R95, input ligand: FMN 200 uM): 33.4 nM
apparent KD of MS2 coat protein [1]: 47.9 nM
apparent KD of MS2 coat protein (Eterna round: R95, input ligand: none): 36.2 nM

GACAUGUGAGGAUAUUGCAUAUAGUUAUAAGUUCAGGGCGGCAAGAAGGCACAUGAGGAUCACCCAUGUACCUU [Eternabot (L2) Solution 81] (Eterna round: R97, puzzle: Exclusion 4)
apparent KD of MS2 coat protein (input ligand: FMN 200 uM): 18.7 nM
apparent KD of MS2 coat protein (input ligand: none): 15.3 nM

CAGACACAUGAGGAUCACCCAUGUAAGGAUAUGAACUGUGGUAACGGAGCCAGCGGGUUCAGAAGGUGCGUGAC [Eternabot (L1) Solution 19] (Eterna round: R97, puzzle: Exclusion 1)
apparent KD of MS2 coat protein (input ligand: FMN 200 uM): 77.9 nM
apparent KD of MS2 coat protein (input ligand: none): 91.4 nM

AAGGGUGCUUUCGGAACGACAUGAGGAUCACCCAUGUAGACUGAGGAUAUCUACUUCUAAGGACGGGAGAAGGCAGUGUAAUGU [Ex NG3 #70] (Eterna round: R96, puzzle: Exclusion NG 3)
apparent KD of MS2 coat protein (input ligand: FMN 200 uM): 44.5 nM
apparent KD of MS2 coat protein [2]: 29 nM
apparent KD of MS2 coat protein (input ligand: none): 39.8 nM

GCUCGCGGGCAAGGAUAUCCUACGCUGUUCUGGCUCGUGUCUGUUACAUGAGGAUCACCCAUGUGGGAGAAGGUGCACCAGGGC [Design 47] (Eterna round: R96, puzzle: Exclusion NG 2)
apparent KD of MS2 coat protein (input ligand: FMN 200 uM): 24.9 nM
apparent KD of MS2 coat protein [2]: 17.4 nM
apparent KD of MS2 coat protein (input ligand: none): 22.6 nM

— the supplement of paper PMC9170038
